Kd and Rmax data for two molecules are collected here from patent US20230121197A1, “ANTIBODIES SPECIFICALLY BINDING THE CARBOXYMETHYLATED CATALYTIC SUBUNIT OF PROTEIN PHOSPHATASE 2A” (Medizinische Universität Wien, priority 2020, published 2023).

The target of assay [1] is T1, carboxymethylated PP2Ac C-terminal peptide (ac-[…]-CH3) (Homo sapiens, UniProt P67775).
T1 construct: The following 11-mer peptides corresponding to the carboxymethylated or non-methylated carboxy-terminus of PP2A and PP4 catalytic subunits were used as antigens
In words: Surface plasmon resonance (Biacore T200), steady state analysis, carboxymethylated PP2Ac peptide. The assay is classed as binding. On the procedure: The differential affinity of anti-carboxymethylated PP2Ac antibodies, 7C10-C5 and 2A10, to carboxymethylated PP2A catalytic subunit versus noncarboxymethylated PP2A catalytic subunit was determined by surface plasmon resonance (SPR) on a Biacore T200 (GE Healthcare) at the Core Facility Biomolecular & Cellular Analysis (University of Natural Resources and Life Sciences Vienna BOKU). The affinity of 7C10-C5 for carboxymethylated and noncarboxymethylated catalytic subunit of PP4 (PP4c), a PP2A-related phosphatase, was also determined. […] The KD of the binding of 7C10-C5 (or 2A10) to non-carboxymethylated PP2Ac or PP4c could not be determined because at the highest analyte sample concentration (5000 nM) only very weak binding signals were detected indicating KD values of at least >5000 nM or higher. […]
SPR experiments were performed with the BiacoreT200 instrument (Cytiva). […] The sensorgrams obtained were analyzed with BiacoreT200 Evaluation Software (version 3.1). […]
Background: SPR reads the build-up and loss of mass on a sensor chip optically.

In assay [2] the target is T2, PP4c C-terminal peptide meL307, ac-PSKKPVADYFL-CH3 (α-carboxymethylated) (human, SMILES …).
T2 construct: also called mePP4c; PP4 Me
T2 peptide: Ac-PSKKPVADYFL-OMe
Kind of assay: SPR (Biacore T200), antibody captured, peptide 50-800 nM as analyte, steady state analysis, 25 °C; SPR steady state; antibody captured at 50 µg/ml, PP4 Me peptide 50-800 nM as analyte. The protocol:
The differential affinity of anti-carboxymethylated PP2Ac antibodies, 7C10-C5 and 2A10, to carboxymethylated PP2A catalytic subunit versus noncarboxymethylated PP2A catalytic subunit was determined by surface plasmon resonance (SPR) on a Biacore T200 (GE Healthcare) at the Core Facility Biomolecular & Cellular Analysis (University of Natural Resources and Life Sciences Vienna BOKU). The affinity of 7C10-C5 for carboxymethylated and noncarboxymethylated catalytic subunit of PP4 (PP4c), a PP2A-related phosphatase, was also determined.
Series S Sensor Chip CM5 (GE Healthcare, 10296958) Flow cells (e.g. Flow cells 3 and 4 for the data shown in Table 5 and FIG. 32) were coated with 30 μg/mL anti-mouse IgG antibody (in immobilization buffer) using the mouse antibody capture kit (GE Healthcare, BR-1008-38, Lot 10294578) via amine coupling according to the manufacturer's protocol (i.e. https://www.cytivalifesciences. com/en/us/shop/protein-analysis/spr-lab el-free-analysis/capture-reagents/mouse-antibody-capture-kit-p-05986). The immobilisation levels obtained were 11620.2 RU (Flow cell 1), 10836.5 RU (Flow cell 2), 11605.9 RU (Flow cell 3) and 11333.9 RU (Flow cell 4), and thus were within the specifications. […]
SPR experiments were performed with the BiacoreT200 instrument (Cytiva). […] The sensorgrams obtained were analyzed with BiacoreT200 Evaluation Software (version 3.1).

B1: 7C10-C5: α-carboxymethylation specific mouse monoclonal IgG1 antibody from single clone hybridoma 7C10-C5 (DSM ACC3350) (antibody)
heavy: MYRMQLLSCIALSLALVTNSDVQLQESGPGLVKPSQSLSLTCSVTGYSITSGYYWNWIRQFPGNKLEWMGYISYDGSNNYNPSLKNRISITRDTSKNQFFLKLNSVTTEDTATYYCAGRFAYWGQGTLVTVSAAKTTAPSVYPLAPVCGDTTGSSVTLGCLVKGYFPEPVTLTWNSGSLSSGVHTFPAVLQSDLYTLSSSVTVTSSTWPSQSITCNVAHPASSTKVDKKIEPRGPTIKPCPPCKCPAPNLLGGPSVFIFPPKIKDVLMISLSPIVTCVVVDVSEDDPDVQISWFVNNVEVHTAQTQTHREDYNSTLRVVSALPIQHQDWMSGKEFKCKVNNKDLPAPIERTISKPKGSVRAPQVYVLPPPEEEMTKKQVTLTCMVTDFMPEDIYVEWTNNGKTELNYKNTEPVLDSDGSYFMYSKLRVEKKNWVERNSYSCSVVHEGLHNHHTTKSFSRTPGK
light: MDMRVPAQLLGLLLLWLSGARCDVLMTQTPLSLPVSLGDQASISCRSSQSIVHSNGNTYLEWYLQKPGQSPKLLIYKVSNRFSGVPDRFSGSGSGTDFTLKINRVEAEDLGVYYCFQGSHVPWTFGGGTKLEIKADAAPTVSIFPPSSEQLTSGGASVVCFLNNFYPKDINVKWKIDGSERQNGVLNSWTDQDSKDSTYSMSSTLTLTKDEYERHNSYTCEATHKTSTSPIVKSFNRNEC
modifications: Amino acid sequence of the recombinant 7C10-C5 heavy chain; Amino acid sequence of the recombinant 7C10-C5 light chain
With B1, the equilibrium dissociation constant (Kd) (commonly the free concentration of one partner at which half of the binding sites on the other are occupied at equilibrium, for simple one-to-one binding) in assay [1] (SPR steady-state affinity model, carboxymethylated PP2Ac 11-mer peptide (SEQ ID NO:18)) was no more than 20 nM. Further, the Rmax in assay [1] (steady state analysis, PP2A Me peptide, 360 sec contact time, 40 μL/min) is 25.14 RU.

B2: 7C10-C5 monoclonal antibody (antibody, V domains shown)
VH: DVQLQESGPGLVKPSQSLSLTCSVTGYSITSGYYWNWIRQFPGNKLEWMGYISYDGSNNYNPSLKNRISITRDTSKNQFFLKLNSVTTEDTATYYCAGRFAYWGQGTLVTVSA
VL: DVLMTQTPLSLPVSLGDQASISCRSSQSIVHSNGNTYLEWYLQKPGQSPKLLIYKVSNRFSGVPDRFSGSGSGTDFTLKINRVEAEDLGVYYCFQGSHVPWTFGGGTKLEIK
notes: Used as hybridoma culture supernatant (ELISA, Western blot, IHC) or at 50 µg/mL (SPR); also called 7C10 X63; clone 7C10-C5
In assay [2], B2 registered an equilibrium dissociation constant (Kd) of 132 nM.
